# Laboratory results from patent US12559749B2, “Methods of rescuing stop codons via genetic reassignment with ACE-tRNA” (UNIVERSITY OF IOWA RESEARCH FOUNDATION, priority 2017, dated 2026).
# B1: Glychr19.trna2: top performing glycine ACE-tRNA UGA, SEQ ID NO: 53 (nucleic acid)
# chain: GCGUUGGUGGUAUAGUGGUUAGCAUAGCUGCCUUCAAAGCAGUUGACCCGGGUUCGAUUCCCGGCCAACGCA
# modifications: chemistry not given here
# Assays:
# CFTR W1282X = CFTR W1282X rescue, western blot of B and C bands, HEK cells; format: cell-based, human; conditions: co-expression with CFTR W1282X cDNA in HEK cells
# Description: To assess is these novel tRNA could rescue CFTR channels harboring nonsense codons, they were co-expressed in mammalian HEK cells with a CFTR W1282X cDNA plasmid. The cellular preparations were analyzed by standard biochemical approaches via Western blot assessment of CFTR protein. […] Specifically, the “B” and “C” bands represent the full-length and fully mature, post-translationally proceeded CFTR protein at the cell surface, respectively. […] FIG. 9.
# For expression in mammalian cells, the cDNA for the coding region and 200 base-pair of the 3′ untranslated region (UTR) of human CFTR was ligated into pcDNA3.1(+) (Promega, USA) using the KpnI and XbaI restriction enzymes. The G542tga and W1282tga mutations were introduced using QuickChange XL II (Stratagene, USA). For expression in Xenopus laevis oocytes, the cDNA for the coding region and 140 base-pair of the 5′ and 244 base-pair 3′ UTR of human CFTR was ligated into pGEM-HE (Promega, USA). Bothe the G542tga and W1282tga mutations were introduced using QuickChange XL II. The cDNA encoding the E. coli histidinol dehydrogenase was codon optimized for Mus musculus and synthesized (BioBasic Inc, Canada) with a c-terminal 8×His-Strep-tag (“8×His” disclosed as SEQ ID NO: 647) for protein purification from mammalian cells. The synthesized cDNA was ligated into pcDNA3.1(+) using EcoRI and XhoI restriction sites. […]
# NanoLuc-TGA, TAA or TAG = format: cell-based, human; conditions: transiently transfected HEK293 cells; listed as Glychr19.t2
molecule,measurement,setting,value
B1,"rescue of CFTR protein, B and C bands",CFTR W1282X,robust populations of ‘B’ and ‘C’ CFTR immunopositive
same,stop codon selectivity (UGA over UAA and UAG),"NanoLuc-TGA, TAA or TAG",selectively suppresses the UGA stop codon
